Test results as given in the DeepSol protein solubility set.

Test: soluble on expression in E. coli; label from the status in PepcDB or PDB records
In the case of “MGHHHHHHSHMSRPGHGGLMPVNGLGFPPQNVARVVVWEWLNEHSRWRPYTATVCHHIENVLKEDARGSVVLGQVDAQLVPYIIDLQSMHQFRQDTGTMRPVRRNFYDPSSAPGKGIVWEWENDGGAWTAYDMDICITIQNAYEKQHPWLDLSSLGFCYLIYFNSMSQMNRQTRRRRRLRRRLDLAYPLTVGSIPKSQSWPVGASSGQPCSCQQCLLVNSTRAASNAILASQRRKAPPAPPL”, the “soluble on expression in E. coli” value is reported as “not soluble”. With “MEASLYSRVGDKVVCQLCWRFCKLGDGEEGHCRVRRNEGGKIFTTTYGKLSHLESRPIEIKPFFHFLPGSTSMTFSTYSCNFDCPWCQNWSISKATPPEALRETSPEEVVDLALIMGDKSTCASLNEPTLLYEYLLDVFRLAREKGLKNTMVSNGYMSILALKNLKNAGLDAINIDVKGDERVYRDYCNAEVEYVWRVIEKATKLGIHVEVVCLLVSNVVDEEVVREIVREHLRRAGSSIPIHFTRYFPAYRFTAPPTRIEFLEWAVKHAYKEGAEFAYIGNVPGHRFENTHCPDCGELLIRRYSFSTVDNRIRSGCCPKCGREIYGVWV” the “soluble on expression in E. coli” value was “not soluble”. With “MTQPLFLIGPRGCGKTTVGMALADSLNRRFVDTDQWLQSQLNMTVAEIVEREEWAGFRARETAALEAVTAPSTVIATGGGIILTEFNRHFMQNNGIVVYLCAPVSVLVNRLQAAPEEDLRPTLTGKPLSEEVQEVLEERDALYREVAHIIIDATNEPSQVISEIRSALAQTINC” the “soluble on expression in E. coli” value was “soluble”. With “MGSDKIHHHHHHMTKQSKTQIRICFVGDSFVNGTGDPECLGWTGRVCVNANKKGYDVTYYNLGIRRDTSSDIAKRWLQEVSLRLHKEYNSLVVFSFGLNDTTLENGKPRVSIAETIKNTREILTQAKKLYPVLMISPAPYIEQQDPGRRRRTIDLSQQLALVCQDLDVPYLDVFPLLEKPSVWLHEAKANDGVHPQAGGYTEFARIVENWDAWLNWFR” the “soluble on expression in E. coli” value was “soluble”. With “PLVCLADFKAHAQKQLSKTSWDFIEGEADDGITYSENIAAFKRIRLRPRYLRDMSKVDTRTTIQGQEISAPICISPTAFHSIAWPDGEKSTARAAQEANICYVISSYASYSLEDIVAAAPEGFRWFQLYMKSDWDFNKQMVQRAEALGFKALVITIDTPVLGNRRRDKRNQLNLEANILLKDLRALKEEKPTQSVPVSFPKASFCWNDLSLLQSITRLPIILKGILTKEDAELAMKHNVQGIVVSNHGGRQLDEVSASIDALREVVAAVKGKIEVYMDGGVRTGTDVLKALALGARCIFLGRPILWGLACKGEDGVKEVLDILTAELHRCMTLSGCQSVAEISPDLIQFSRL” the “soluble on expression in E. coli” value was “soluble”. With “MNDVYAEAKLNKPDFHTAYTLKKDDGGAIALGEGSTGTVTEVTDPEAIATTVVEWTVTPAEALALVKKSKTEMFATVTYESVDGTRGDITITMKASIAMPSGVIKNDQKITEAWSPDKSYVKADVKEPVTVAVTDFKLDLFDVFEGRKVVVSDVTEANFPSFTKDKLTAKFIFSGAKDVTIGTDKYTFTVTANGTQLNASKNSATATKIATIDADGIITYNKADENAHALLNKSAYNVDPFTVGIEIVVTNECDEILPLTGNKFDVKFLRPINVVDLKSAELQDATTGTAKIDMSKLLGLTDWRGQAFAVAPIDFYTYYGVTGSAISIDKDQIMTTLNASEAAPKLLKDVAPNMSINYTCDLQKIGGDITYGDLVYANGKFTINAPFKLFIPVTVKYTFGEVTSTVTLTITPTHQ” the “soluble on expression in E. coli” value was “not soluble”. For “MSLAKPIEAHTVSPVNPNAQQTTKTVMNWLAHLPNRTENRVLSGAFGGYSHDTFSMAEADRIRSATGQSPAIYGCDYARGWLETANIEDSIDVSCNGDLMSYWKNGGIPQISLHLANPAFQSGHFKTPITNDQYKKILDSSTVEGKRLNAMLSKIADGLQELENQGVPVLFRPLHEMNGEWFWWGLTSYNQKDNERISLYKQLYKKIYHYMTDTRGLDHLIWVYSPDANRDFKTDFYPGASYVDIVGLDAYFQDAYSINGYDQLTALNKPFAFTEVGPQTANGSFDYSLFINAIKQKYPKTIYFLAWNDEWSAAVNKGASALYHDSWTLNKGEIWNGDSLTPIVEEGHHHHHH”, the “soluble on expression in E. coli” value was “soluble”. For “MNALARRAAGLLLSTICLPLTALAADPQPTHEFTLDNGLKVVVREDHRAPVVVSQIWYKVGSSYETPGQTGLSHALEHMMFKGSSKTGPGESSLILRDLGAEENAFTSDDYTAYYQVLARDRLSVALELEADRMATLKLPADEFGREIEVIKEERRLRTDDKPMGKAFERFKAMAYPASGYHTPTIGWMADLERMKVEELRHWYESWYTPNNATLVVVGDVQPDEVKALAERFFGPIPRRDVPPSKKPLELAEPGERKITLHVKTQLPSLIYGFNVPSVATAEDPRSANALRLIAALLDGGYSARIPTRLERGEELVSGASSRYDAFARGDSLFMISATPNMQKKKTLADVEAGIWRLLDDLKTKAPSAEELERVRAQVIAGVVYERDSITSQATMIGELETVGLSWKLMDKELEDLQSVTPQDIQKAANTYFTRERLSVAHVLPEEKAK”, the “soluble on expression in E. coli” value was “not soluble”. In the case of “SGRKIGSIVMNANPFTLGHQYLIEQACEQCDWVHLFVVKAENKDFSYADRMAMIKAGSKHLLNLTIHSGSDYIISRATFPSYFIKDQQVVNQSHTALDLSIFRHSIAPALGITHRFVGSEPICTVTRHYNQAMRRWLEEAHDASAPIQVVEIERSQQASQPISASRVRYLLKQFGFAAIADLVPKTTYSYLCQHYAEH”, the “soluble on expression in E. coli” value is reported as “not soluble”. With “MSLKFHSPSCFLSAGEPSGDTLGSDLLRNIKELNPNIHCFGVGGPLMRKEGLEPLIRMEEFQVSGFLEVFCAVFSLYKKYRKLYKAILKENPETVFCIDFPDFHFFLIRKLRKCGYRGKIIHYVCPSIWAWRPNRKKILEKHLDTLLLILPFEKEIFKDSPLKTIYLGHPLVKTIANFQDCNAWKQQLEISDQPSVALFPGSRPGDIFRNLQVQARAFRSSSLAKSHQLLVSSCNPKYDKKILELLDKEGCHNNKIVPSKFRYQLMRDCDCALAKCGTIVLEAALNQTPTIVTCLLRPFDTFLAKYIFKIFIPAYSLPNIITGSVIFPEFIGGKHDFSPEEVAAAIDILANPIGKEKQKYACQQLLKTMTENVITPKECLQAIYAQKNREGHHHHHH” the “soluble on expression in E. coli” value was “not soluble”. In the case of “GSKVVKFSYMWTINNFSFCREEMGEVIKSSTFSSGANDKLKWCLRVNPKGLDEESKDYLSLYLLLVSCPKSEVRAKFKFSILNAKGEETKAMESQRAYRFVQGKDWGFKKFIRRGFLLDEANGLLPDDKLTLFCEVSVVQDSVNISGQNTMNMVKVPECRLADELGGLWENSRFTDCCLCVAGQEFQAHKAILAARSPVFSAMFEHEMEESKKNRVEINDVEPEVFKEMMCFIYTGKAPNLDKMADDLLAAADKYALERLKVMCEDALCSNLSVENAAEILILADLHSADQLKTQAVDFINYHATDVLETSG”, the “soluble on expression in E. coli” value is reported as “soluble”. In the case of “MGSDKIHHHHHHMETPMTMSQVDAVVRDPASVVTAIESRFSCRAFSPDRPVSRQQVEEILRIARCAASSTNTQPWKVYVLQGDRRDALVAQVCAAHDATRADSSLTAEYGEVDGYYPSEWVSPYIDRRRHNGWTLYGHLGIGKGEKDKMHAQGQRNYRFFDAPVGLMFTIDRVMGRGSLIDYGMFLQTLMLAARALGLHTCPQAAWNNCAKIVLPFIGAGANEMLVCGMALGYADQSAPVNTYRTPRETVESFTRWI”, the “soluble on expression in E. coli” value is reported as “not soluble”. In the case of “MNNLISQDKRISSNPVAKIIYGDPVTFLPHLPRKSVVHCSKIWSCRKRITVEYLQHIVEQKNGKERVPILWHFLQKEAELRLVKFLPEILALQRDLVKQFQNVQQVEYSSIRGFLSKHSSDGLRQLLHNRITVFLSTWNKLRRSLETNGEINLPKDYCSTDLDLDTEFEILLPRRRGLGLCATALVSYLIRLHNEIVYAVEKLSKENNSYSVDAAEVTELHVISYEVERDLTPLILSNCQYQVEEGRETVQEFDLEKIQRQIVSRFLQGKPRLSLKGIPTLVYRHDWNYEHLFMDIKNKMAQDSLPSSVISAISGQLQSYSDACEVLSVVEVTLGFLSTAGGDPNMQLNVYTQDILQMGDQTIHVLKALNRCQLKHTIALWQFLSAHKSEQLLRLHKEPFGEISSRYKADLSPENAKLLSTFLNQTGLDAFLLELHEMIILKLKNPQTQTEERFRPQWSLRDTLVSYMQTKESEILPEMASQFPEEILLASCVSVWKTAAVLKWNREMR”, the “soluble on expression in E. coli” value is reported as “not soluble”. For “VEHEQQVTESPSLASVPTADELFDFHIGDRVLIGNVQPGILRFKGETSFAKGFWAGVELDKPEGNNNGTYDGIAYFECKEKHGIFAPPQKISHIPENFDDYVDINEDED”, the “soluble on expression in E. coli” value was “soluble”. In the case of “GAASPGPSRPGLVPVSIIGAEDEDFENELETNSEEQNSQFQSLEQVKRRPAHLMALLQHVALQFEPGPLLCCLHADMLGSLGPKEAKKAFLDFYHSFLEKTAVLRVPVPPNVAFELDRTRADLISEDVQRRFVQEVVQSQQVAVGRQLEDFRSKRLMGMTPWEQELAQLEAWVGRDRASYEARERHVAERLLMHLEEMQHTISTDEEKSAAVVNAIGLYMRHLGVRTKSGDKK”, the “soluble on expression in E. coli” value is reported as “soluble”. For “MAHHHHHHSLSQVILDLQLACENHAGLPDEAQFQRWLDGVIPQFQEEAEVTIRLVDEAESHDLNLTYRGKDKPTNVLSFPFEAPPGIEMPLLGDLIICRQVVEQEAQEQSKPLEAHWAHMVVHGSLHLLGYDHIDDDEAEEMESLETEIMLAMGYEDPYIAEKIAE”, the “soluble on expression in E. coli” value was “soluble”. With “MTQEAIFKAIREREMKVLNIQVTSSCNYACGMCPFHGDGYSGEYFDERPTIRRDMSLDEIKLILEKASMEGFEWIDLTPNGEFFTHKQWYQILSLIKEFGLKIMITSNGGLLGEEDIKRACEVGVDHIVISVDSLSYESYKKIRKPATKLAFERAIHAPLYFKKYGGDSIYVQIQITEQPEFPHEALGVLDFYKDKGLNQISLKKMFVTGEDGIGHIGVEKLEYTHGKCKAYGSPIVMTDGTVLPCCGAFYFYPKLGEKIPNIFNHTIFESARILDDLYERDSLFGSYCRNCSLYDSSRKAAPVKFIFGDYYAEQTLFETRYFILPKYLRFLPSLAILWLYKKGYARKIKQWLVAAQ” the “soluble on expression in E. coli” value was “not soluble”. For “MSLDKPVLLLGEICVDFTLSTPMSSAKMRLGGVVHAARGLWALNVPYSVAAICPDYLVSEAEAYLYAHGCTNFIQVGTVLGAPNVFLIGDAREVGHQGYENILREAKKVLTFDLDEKLRGFKNIVVYPGTFDFEGIVKNLDSDAKITVDIAYDVNDADELSRVYGASHALAISTSSELFSSLALENLGPLLKACKTRSAKHLLLKENRGGSRLFDLESGESWEIPATLARTVNSVGVGDVYTAVFAALIDHGALTAALRGMQAATRYAQTTFPDDFKRDVQRDEGHHHHHH”, the “soluble on expression in E. coli” value was “not soluble”. With “MNHAQLRRVTAESFAHYRHGLAQLLFETVHGGASVGFMADLDMQQAYAWCDGLKADIAAGSLLLWVVAEDDNVLASAQLSLCQKPNGLNRAEVQKLMVLPSARGRGLGRQLMDEVEQVAVKHKRGLLHLDTEAGSVAEAFYSALAYTRVGELPGYCATPDGRLHPTAIYFKTLGQPT” the “soluble on expression in E. coli” value was “soluble”. For “MKIQDYTKEMVDEKSFIDMAYTLLNDKQTTMNLYDIIDEFKSLGGYEYEDIENRIVQFYTDLNTDGRFLNVGENLWGLRDWYSVDDIEEKIAPTIQKFDILDDEDEEDQNLKLLGDDDADEDDDIPAQTDDQETLDESDNDEDDVEMNEADIVIDEDEDEDIAEGEEEAFEDAEDFND”, the “soluble on expression in E. coli” value was “not soluble”. For “MATMLSRYFLLTVAALFAQSASAIEVLTSIKPIQMITYELMLGTGTPDVLLPSGASPHDYALRPSDVKRIQQADLVIWFGQDLEPFMSKLLEGRTSALTLSQVPNLALREYGEEEQHEHDGHHHGHYDPHFWLGIGPVGQVASAITAKLIELDADQQQQYQDNLVRFLANLAEQDNTIGEKLKPVTTVPYYVFHDAYGYFEQHFALNNLGHFTVSPERKPGAKTLIAIKKTLNDQLAKCVFSEPQFEPAIIETVVRGTSAKIGVLDPLGISIELQAGSYFAFLNSLAESYYACLSQS”, the “soluble on expression in E. coli” value was “not soluble”. In the case of “PVLIVTPLEDQQVFVGDRVEMAVEVSEEGAQVMWMKNGVELTREDSFKARYRFKKDGKRHILIFSDVVQEDRGRYQVITNGGQCEAELIVEEKQ”, the “soluble on expression in E. coli” value is reported as “soluble”.
